B1: FIXa-Y155F/K247N/N249S/R318Y/R403E/E410N (protein)
chain 1: YNSGKLEEFVQGNLERECMEEKCSFEEAREVFENTERTTEFWKQYVDGDQCESNPCLNGGSCKDDINSYECWCPFGFEGKNCELDVTCNIKNGRCEQFCKNSADNKVVCSCTEGYRLAENQKSCEPAVPFPCGRVSVSQTSKLTR
chain 2: VVGGEDAKPGQFPWQVVLNGKVDAFCGGSIVNEKWIVTAAHCVETGVKITVVAGEHNIEETEHTEQNRSVIRIIPHHNYNAAINKYNHDIALLELDEPLVLNSYVTPICIADKEYTNIFLKFGSGYVSGWGRVFHKGYSALVLQYLRVPLVDRATCLRSTKFTIYNNMFCAGFHEGGRDSCQGDSGGPHVTEVEGTSFLTGIISWGEECAMKGKYGIYTKVSEYVNWIKNKTKLT
B2: FIXa R318Y/R338E/N346Y/R403E/E410N (protein)
chain 1: B1 chain 1
chain 2: B1 chain 2 with N67K, S69N, R158E, N166Y
B3: FIXa-Y155F/R318Y/T343R/R403E/E410N (protein)
chain 1: B1 chain 1
chain 2: B1 chain 2 with N67K, S69N, T163R
B4: FIXa-R318Y/R338E/T343R/R403E (protein)
chain 1: B1 chain 1
chain 2: B1 chain 2 with N67K, S69N, R158E, T163R, N230E
B5: FIXa-Y155F/K247N/N249S/R338E/R403E/E410N (protein)
chain 1: B1 chain 1
chain 2: B1 chain 2 with Y138R, R158E
B6: FIXa Y155F/R318Y/R338E/N346D/R403E/E410N (protein)
chain 1: B1 chain 1
chain 2: B1 chain 2 with N67K, S69N, R158E, N166D
B7: FIXa R318Y/R338E/E410N/T412V (protein)
chain 1: B1 chain 1
chain 2: B1 chain 2 with N67K, S69N, R158E, E223R, T232V
B8: FIXa D104N/K106S/R318Y/R338E/T343R/R403E/E410N (protein)
chain 1: B1 chain 1 with D104N, K106S
chain 2: B1 chain 2 with N67K, S69N, R158E, T163R
B9: FIXa Y155F/K228N/K247N/N249S/R318Y/R338E/R403E/E410N (protein)
chain 1: B1 chain 1
chain 2: B1 chain 2 with K48N, R158E
B10: FIXa-R338E/T343R/R403E/E410N (protein)
chain 1: B1 chain 1
chain 2: B1 chain 2 with N67K, S69N, Y138R, R158E, T163R
B11: FIXa R318Y/R338E/R403E/T412A (protein)
chain 1: B1 chain 1
chain 2: B1 chain 2 with N67K, S69N, R158E, N230E, T232A
B12: FIXa Y155F/K247N/N249S/N260S/R318Y/R338E/R403E/E410N (protein)
chain 1: B1 chain 1
chain 2: B1 chain 2 with N80S, R158E
B13: FIXa Y155F/K247N/N249S/N260S (protein)
chain 1: B1 chain 1
chain 2: B1 chain 2 with N80S, Y138R, E223R, N230E
B14: FIXa R318Y/R338E/R403E/E410N/T412A (protein)
chain 1: B1 chain 1
chain 2: B1 chain 2 with N67K, S69N, R158E, T232A
B15: FIXa D104N/K106S/Y155F/K247N/N249S/N260S (protein)
chain 1: B1 chain 1 with D104N, K106S
chain 2: B1 chain 2 with N80S, Y138R, E223R, N230E
B16: FIXa R318Y/R338E/T343R/R403E/E410N (protein)
chain 1: B1 chain 1
chain 2: B1 chain 2 with N67K, S69N, R158E, T163R
B17: FIXa R318Y/R338E/R403E/E410N/T412V (protein)
chain 1: B1 chain 1
chain 2: B1 chain 2 with N67K, S69N, R158E, T232V
B18: FIXa N260S/R318Y/R338E/R403E/E410N (protein)
chain 1: B1 chain 1
chain 2: B1 chain 2 with N67K, S69N, N80S, R158E
B19: FIXa-K247N/N249S/R338E/R403E/E410N (protein)
chain 1: B1 chain 1
chain 2: B1 chain 2 with Y138R, R158E
B20: FIXa K247N/N249S/N260S/R318Y/R338E/R403E/E410N (protein)
chain 1: B1 chain 1
chain 2: B1 chain 2 with N80S, R158E
B21: FIXa K293E/R338E/R403E (protein)
chain 1: B1 chain 1
chain 2: B1 chain 2 with N67K, S69N, K113E, Y138R, R158E, N230E
B22: FIXa-Y155F/R318Y/R338E/T343R/E410N (protein)
chain 1: B1 chain 1
chain 2: B1 chain 2 with N67K, S69N, R158E, T163R, E223R
B23: FIXa Y155F/N260S/R318Y/R338E/R403E/E410N (protein)
chain 1: B1 chain 1
chain 2: B1 chain 2 with N67K, S69N, N80S, R158E
B24: FIXa K293A/R338A/R403A (protein)
chain 1: B1 chain 1
chain 2: B1 chain 2 with N67K, S69N, K113A, Y138R, R158A, E223A, N230E
B25: FIXa-K247N/N249S/R318Y/R403E/E410N (protein)
chain 1: B1 chain 1
chain 2: B1 chain 2
B26: FIXa R318Y/R338E/T412A (protein)
chain 1: B1 chain 1
chain 2: B1 chain 2 with N67K, S69N, R158E, E223R, N230E, T232A
B27: FIXa-Y155F/R318Y/R338E/T343R/R403E (protein)
chain 1: B1 chain 1
chain 2: B1 chain 2 with N67K, S69N, R158E, T163R, N230E
B28: FIXa D104N/K106S/K247N/N249S/N260S (protein)
chain 1: B1 chain 1 with D104N, K106S
chain 2: B1 chain 2 with N80S, Y138R, E223R, N230E
B29: FIXa-R318Y/T343R/R403E/E410N (protein)
chain 1: B1 chain 1
chain 2: B1 chain 2 with N67K, S69N, T163R
B30: FIXa Y155F/R318Y/R338E/T343R/R403E/E410N (protein)
chain 1: B1 chain 1
chain 2: B1 chain 2 with N67K, S69N, R158E, T163R
B31: FIXa D104N/K106S/N260S/R318Y/R338E/R403E/E410N (protein)
chain 1: B1 chain 1 with D104N, K106S
chain 2: B1 chain 2 with N67K, S69N, N80S, R158E

Substitutions are numbered along the chain they refer to. In names and notes the source's numbering stands.

For the data set, the target named is Factor X, P00742.
Sequence of Factor X, P00742 (P00742 whole entry, looked up): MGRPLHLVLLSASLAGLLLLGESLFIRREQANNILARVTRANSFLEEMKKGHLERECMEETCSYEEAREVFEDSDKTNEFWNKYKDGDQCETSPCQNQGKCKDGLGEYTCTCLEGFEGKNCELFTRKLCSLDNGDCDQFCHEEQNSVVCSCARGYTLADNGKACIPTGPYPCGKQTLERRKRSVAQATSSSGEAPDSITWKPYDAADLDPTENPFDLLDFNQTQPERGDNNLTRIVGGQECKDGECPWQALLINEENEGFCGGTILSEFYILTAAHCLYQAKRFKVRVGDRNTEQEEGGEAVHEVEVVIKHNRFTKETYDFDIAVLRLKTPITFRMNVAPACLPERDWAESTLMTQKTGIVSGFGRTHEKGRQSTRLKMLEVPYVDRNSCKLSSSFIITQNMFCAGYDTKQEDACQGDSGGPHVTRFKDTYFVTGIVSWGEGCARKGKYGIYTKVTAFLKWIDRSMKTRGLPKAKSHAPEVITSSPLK
As to B1, the “% of WT kcat/KM” value stood at 22%, the kcat is 1.2 s⁻¹ and the kcat/KM is 1e+07 M⁻¹ s⁻¹.
Regarding B2, the “% of WT kcat/KM” value is 270%; the KM (FX activation by FIXa in Xase complex with FVIIIa, PC/PS vesicles, Ca2+) is 0.0281 µM; the kcat/KM amounted to 1.2e+08 M⁻¹ s⁻¹.
As for B3, the “% of WT kcat/KM” value is reported as 571%, the kcat stood at 8.8 s⁻¹ and the kcat/KM was 2.6e+08 M⁻¹ s⁻¹.
As to B4, the “% of WT kcat/KM” value worked out at 357%, the kcat is 6.7 s⁻¹ and the kcat/KM was 1.6e+08 M⁻¹ s⁻¹.
In the case of B5, the “% of WT kcat/KM” value is reported as 229%, the kcat is 5 s⁻¹ and the kcat/KM is 1.1e+08 M⁻¹ s⁻¹.
With B6, the “% of WT kcat/KM” value was determined as 135%; the KM (FX activation by FIXa in Xase complex with FVIIIa, PC/PS vesicles, Ca2+) came to 0.1 µM; the kcat/KM is 6.2e+07 M⁻¹ s⁻¹.
The like results for B7 were, in that order, 571%, 0.0236 µM and 2.6e+08 M⁻¹ s⁻¹.
The like results for B8 were, in that order, 487%, 0.0266 µM and 2.2e+08 M⁻¹ s⁻¹.
For B9, in that order: 263%, 0.0454 µM and 1.2e+08 M⁻¹ s⁻¹.
For the protein B10, the “% of WT kcat/KM” value is given as 650%, the kcat turned out to be 9.8 s⁻¹ and the kcat/KM is 3e+08 M⁻¹ s⁻¹.
Regarding B11, the “% of WT kcat/KM” value is recorded as 173%; the KM (FX activation by FIXa in Xase complex with FVIIIa, PC/PS vesicles, Ca2+) amounted to 0.0675 µM; the kcat/KM came to 8e+07 M⁻¹ s⁻¹.
Take B12: the “% of WT kcat/KM” value is 124%; the KM (FX activation by FIXa in Xase complex with FVIIIa, PC/PS vesicles, Ca2+) amounted to 0.0954 µM; the kcat/KM stood at 5.7e+07 M⁻¹ s⁻¹.
For the protein B13, the “% of WT kcat/KM” value is listed as 42%; the KM (FX activation by FIXa in Xase complex with FVIIIa, PC/PS vesicles, Ca2+) turned out to be 0.0965 µM; the kcat/KM came to 1.9e+07 M⁻¹ s⁻¹.
Take B14: the “% of WT kcat/KM” value is given as 538%; the KM (FX activation by FIXa in Xase complex with FVIIIa, PC/PS vesicles, Ca2+) turned out to be 0.0344 µM; the kcat/KM was 2.5e+08 M⁻¹ s⁻¹.
The like results for B15 were, in that order, 18%, 0.0685 µM and 8.2e+06 M⁻¹ s⁻¹.
For B16, in that order: 907%, 0.0247 µM and 4.2e+08 M⁻¹ s⁻¹.
For B17, in that order: 342%, 0.0483 µM and 1.6e+08 M⁻¹ s⁻¹.
On to B18, for which the “% of WT kcat/KM” value is given as 114%; the KM (FX activation by FIXa in Xase complex with FVIIIa, PC/PS vesicles, Ca2+) came out at 0.0724 µM; the kcat/KM is 5.3e+07 M⁻¹ s⁻¹.
B19: the “% of WT kcat/KM” value is reported as 422%, the kcat was 4.8 s⁻¹ and the kcat/KM was 1.9e+08 M⁻¹ s⁻¹.
Consider B20, for which the “% of WT kcat/KM” value amounted to 145%; the KM (FX activation by FIXa in Xase complex with FVIIIa, PC/PS vesicles, Ca2+) stood at 0.0474 µM; the kcat/KM turned out to be 6.7e+07 M⁻¹ s⁻¹.
Consider B21, for which the KM of FX activation by FIXa in the Xase complex (FVIIIa, PC/PS vesicles, Ca2+); fluorogenic FXa substrate amounted to 0.05 µM.
Take B22: the “% of WT kcat/KM” value was determined as 794%, the kcat turned out to be 9.2 s⁻¹ and the kcat/KM is 3.7e+08 M⁻¹ s⁻¹.
Take B23: the “% of WT kcat/KM” value was found to be 152%; the KM (FX activation by FIXa in Xase complex with FVIIIa, PC/PS vesicles, Ca2+) came out at 0.0839 µM; the kcat/KM was determined as 7e+07 M⁻¹ s⁻¹.
Take B24: the KM of FX activation by FIXa in the Xase complex (FVIIIa, PC/PS vesicles, Ca2+); fluorogenic FXa substrate came out at 0.0654 µM.
As to B25, the “% of WT kcat/KM” value is reported as 58%, the kcat is 2.9 s⁻¹ and the kcat/KM turned out to be 2.7e+07 M⁻¹ s⁻¹.
Regarding B26, the “% of WT kcat/KM” value amounted to 642%; the KM (FX activation by FIXa in Xase complex with FVIIIa, PC/PS vesicles, Ca2+) was 0.0235 µM; the kcat/KM was 3e+08 M⁻¹ s⁻¹.
As to B27, the “% of WT kcat/KM” value is recorded as 563%, the kcat is 8.2 s⁻¹ and the kcat/KM was found to be 2.6e+08 M⁻¹ s⁻¹.
With B28, the “% of WT kcat/KM” value is recorded as 21%; the KM (FX activation by FIXa in Xase complex with FVIIIa, PC/PS vesicles, Ca2+) turned out to be 0.0612 µM; the kcat/KM was determined as 9.8e+06 M⁻¹ s⁻¹.
As for B29, the “% of WT kcat/KM” value is on record as 125%, the kcat was found to be 5.3 s⁻¹ and the specificity constant (kcat/KM) turned out to be 5.8e+07 M⁻¹ s⁻¹.
Regarding B30, the “% of WT kcat/KM” value worked out at 640%; the KM (FX activation by FIXa in Xase complex with FVIIIa, PC/PS vesicles, Ca2+) worked out at 0.0272 µM; the kcat/KM was found to be 3e+08 M⁻¹ s⁻¹.
For the protein B31, the “% of WT kcat/KM” value was determined as 190%; the KM (FX activation by FIXa in Xase complex with FVIIIa, PC/PS vesicles, Ca2+) amounted to 0.0611 µM; the kcat/KM is 8.8e+07 M⁻¹ s⁻¹.

The term kcat denotes the number of substrate molecules converted per active site and unit of time at saturation. Broadly, the kcat/KM is the turnover number divided by the Michaelis constant.
